The values that follow come from article PMC3617563.

As usually defined, the Kd is the free concentration of one partner at which half of the binding sites on the other are occupied at equilibrium, for simple one-to-one binding. A higher Kd goes with weaker binding.

For assay [1], the target named is K48-linked IQF (internally quenched fluorescence) diubiquitin substrate DiUb48-6 (UniProt P0CG48). Put plainly: stopped-flow fluorescence.
Assay [2] has the same target. Put plainly: other fluorescence titration.

B1: C276A USP2 catalytic core (inactive active-site mutant) (domain or fragment)
chain: NSKSAQGLAGLRNLGNTAFMNSILQCLSNTRELRDYCLQRLYMRDLHHGSNAHTALVEEFAKLIQTIWTSSPNDVVSPSEFKTQIQRYAPRFVGYNQQDAQEFLRFLLDGLHNEVNRVTLRPKSNPENLDHLPDDEKGRQMWRKYLEREDSRIGDLFVGQLKSSLTCTDCGYCSTVFDPFWDLSLPIAKRGYPEVTLMDCMRLFTKEDVLDGDEKPTCCRCRGRKRCIKKFSIQRFPKILVLHLKRFSESRIRTSKLTTFVNFPLRDLDLREFASENTNHAVYNLYAVSNHSGTTMGGHYTAYCRSPGTGEWHTFNDSSVTPMSSSQVRTSDAYLLFYELASPPSRM
In assay [1], B1 yielded a K1 (association constant of the first step) of 2.33 µM⁻¹; a K2 (equilibrium constant of the second step) of 0.59; a Kd from a fit to a single exponential function of 2.42 µM; a k1 (first step, association) of 140000 M⁻¹ s⁻¹. In assay [1], the k−1 (first step, dissociation) amounted to 0.06 s⁻¹; the maximum of kobs,2 is 0.57 s⁻¹; the y-intercept of the linear regression of kobs,1 is 0.63 s⁻¹. In assay [2], the Kd worked out at 0.27 µM.
